Source: publication PMC12283967 (Nature Communications, 2025)
Where a chain is given by its changes, count along the chain named. Numbers in names are those of the source. Read-outs that look alike come from different tables or passages of the source.

B1: Sumo-His-tagged PFKM WT (enzyme, human, UniProt P08237 1-780, looked up)
chain: MTHEEHHAAKTLGIGKAIAVLTSGGDAQGMNAAVRAVVRVGIFTGARVFFVHEGYQGLVDGGDHIKEATWESVSMMLQLGGTVIGSARCKDFREREGRLRAAYNLVKRGITNLCVIGGDGSLTGADTFRSEWSDLLSDLQKAGKITDEEATKSSYLNIVGLVGSIDNDFCGTDMTIGTDSALHRIMEIVDAITTTAQSHQRTFVLEVMGRHCGYLALVTSLSCGADWVFIPECPPDDDWEEHLCRRLSETRTRGSRLNIIIVAEGAIDKNGKPITSEDIKNLVVKRLGYDTRVTVLGHVQRGGTPSAFDRILGSRMGVEAVMALLEGTPDTPACVVSLSGNQAVRLPLMECVQVTKDVTKAMDEKKFDEALKLRGRSFMNNWEVYKLLAHVRPPVSKSGSHTVAVMNVGAPAAGMNAAVRSTVRIGLIQGNRVLVVHDGFEGLAKGQIEEAGWSYVGGWTGQGGSKLGTKRTLPKKSFEQISANITKFNIQGLVIIGGFEAYTGGLELMEGRKQFDELCIPFVVIPATVSNNVPGSDFSVGADTALNTICTTCDRIKQSAAGTKRRVFIIETMGGYCGYLATMAGLAAGADAAYIFEEPFTIRDLQANVEHLVQKMKTTVKRGLVLRNEKCNENYTTDFIFNLYSEEGKGIFDSRKNVLGHMQQGGSPTPFDRNFATKMGAKAMNWMSGKIKESYRNGRIFANTPDSGCVLGMRKRALVFQPVAELKDQTDFEHRIPKEQWWLKLRPILKILAKYEIDLDTSDHAHLEHITRKRSGEAAV
B2: Sumo-His-tagged PFKM F639L (enzyme, human, UniProt P08237 1-780, looked up)
chain: B1 chain with F639L

What was measured:
SEC [1] = target: the molecule itself; assay: SEC
SEC [2] = target: the molecule itself; assay: SEC; remark: listed apart in the source

Protein | stoichiometry N (SEC [1]) | stoichiometry N (SEC [2])
B1 | 4 | 2
B2 | 2 | 
